Results on 36 sequences are retold here after the supplement of paper PMC12764529.

± gives the half width of the 95% confidence interval.

Series [1] can be described thus: folding stability dG unfold from chymotrypsin proteolysis; higher = more stable. In a few lines: (§1)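 Designed mini-proteins with no cysteine and under 80 residues were kept only if AlphaFold2 dimer inter-PAE was above 15. In a PA-tagged cDNA display construct, they were digested with trypsin and chymotrypsin and then sequenced. K50 was inferred by Bayesian fitting of counts, and unfolding free energy was derived per protease or combined against a sequence-predicted unfolded-state K50 and a shared folded-state K50.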

A short description of series [2]: folding stability dG unfold from trypsin proteolysis; higher = more stable. In a few lines: as §1
A short description of series [3]: folding stability dG unfold (combined trypsin and chymotrypsin); higher = more stable. In a few lines: as §1

As for “GEVVERLKLPDLELVEVRTTTEGDTTFVYVKLKRPDSYYVVKLTVTPATGEVTVTEEKKVSPNETLEEVLAS [r1_383_JUSTAS]”, the “folding stability dG unfold” value in series [1] was 2.76 ± 0.12 kcal/mol; in series [2], 1.66 ± 0.12 kcal/mol; in series [3] it was 2.36 ± 0.21 kcal/mol.
“GFEVTAEIEVYEDPESGAKVVKVTIPVKNGDPEVLEKAAKELAKKLFGPGAKFDPKIDPETGRVEVTGVLAS [r1_273_TrMRF]”: the figures for the “folding stability dG unfold” value in series [1], in series [2] and in series [3] were 1.57 ± 0.07 kcal/mol, 0.942 ± 0.046 kcal/mol and 1.38 ± 0.13 kcal/mol, respectively.
In the case of “GKAEVVRVEYDPETGALRVVLRREGADVVLEVDPETGVARVYFPADPRVLEFEFDTLEEAVDAAVALLEAGS [r1_177_TrMRF]”, the “folding stability dG unfold” value in series [1] was determined as 4.66 ± 0.14 kcal/mol; in series [2], 3.59 ± 0.17 kcal/mol; in series [3], 4.36 ± 0.14 kcal/mol.
On the same counts, the results for “GLTVTLDGNSLTVTADAGDKTVTVTAPVFHPEKGLVTVVTVTATREDGALVLHTESRTIRLPPLPPLHPDLS [r1_100_TrMRF]” are 4.18 ± 0.57 kcal/mol, 2.21 ± 0.29 kcal/mol and 3.59 ± 0.43 kcal/mol.
On the same counts, the results for “GLVDEDGKEVFPEVPLVIELDVPENLPDGKKLSPEEVEKLVKGLAEKLKKEYNVKKVEAERKGNKVLILVGS [r1_369_TrMRF]” are 0.519 ± 0.15 kcal/mol, 0.688 ± 0.058 kcal/mol and 0.706 ± 0.1 kcal/mol.
For the sequence “GMNLKETTVTIPLKVKSEEEAKKKAEEIANELKKKYPDIIEIKIEIKEIDKETGIVIITIKFKAKNSSVLLS [r1_52_JUSTAS]”, the entries for the “folding stability dG unfold” value in series [1], in series [2] and in series [3] were 1.27 ± 0.14 kcal/mol, 2.18 ± 0.33 kcal/mol and 2 ± 0.55 kcal/mol, respectively.
On the same counts, the results for “GSAGVMFGSREDIEALAAALGPDVAPTDVTYDPSGYYYYTIPLPDGTPTSLTIPPDKYSPEEVAALARRLTS [r1_279_JUSTAS]” are 0.703 ± 0.15 kcal/mol, -0.346 ± 0.56 kcal/mol and 0.481 ± 0.14 kcal/mol.
On the same counts, the results for “GSMTIPVVLPPGVRLPLSELWAIAKQYGGKLTATVYDPETGTSTSVTFPGGQLGDSTMAPGERTVNVTVVGS [r1_238_JUSTAS]” are 0.825 ± 0.09 kcal/mol, 0.527 ± 0.031 kcal/mol and 0.759 ± 0.076 kcal/mol.
On the same counts, the results for “GSNAVEVTLEVEVTITDPKTPDNKTTTVTIPLTVKLPPSVTSLEELEALARERAEAVAAELGGTVVTVTPVS [r1_300_JUSTAS]” are 2.42 ± 0.067 kcal/mol, 2.61 ± 0.098 kcal/mol and 2.49 ± 0.089 kcal/mol.
Turning to “GSVTIELVVPKGVDIPLALLAGIASTGKGKVTARISNPLSGKEIEVTFPGGGLGEAGVTEGINVVRLTVYGS [r1_238_TrMRF]”, the “folding stability dG unfold” value turned out to be 1.29 ± 0.11 kcal/mol in series [1], 0.869 ± 0.1 kcal/mol in series [2] and 1.2 ± 0.19 kcal/mol in series [3].
On the same counts, the results for “GYTITSEVEEFEDPNSDAKYTKVTIPVVDGDPEVAREAAEEIAKERFGPGATLDIKYDPETGTVTATFTVAS [r1_273_JUSTAS]” are 0.379 ± 0.1 kcal/mol, 0.511 ± 0.026 kcal/mol and 0.563 ± 0.081 kcal/mol.
On the same counts, the results for “ITIRIPPNGNIRIEMIDPNGKWWTYTFPVKDPEENLQRLKDIIRDFFPGFEDVDVKITEVEDGWVTITVPLS [r1_389_TrROS]” are 4.96 ± 0.23 kcal/mol, 4.05 ± 0.17 kcal/mol and 4.76 ± 0.21 kcal/mol.
With “KIEIVEIKKENGKITIKVKNPIPNAKLIIYLFNPKGEIVSAKTHPGPEVELEIEVPENESFSVLVKLFPPKS [r1_382_TrMRF]”, the “folding stability dG unfold” value in series [1] was determined as 4.24 ± 0.083 kcal/mol; in series [2], 3.35 ± 0.12 kcal/mol; in series [3], 3.99 ± 0.14 kcal/mol.
Take “KIKIEPGETVRIKVKVKLPDGEEKEIEIELSLEELEKKLGRPLTPEEILNLIKEEAEKKGFEVEEVEIEKES [r1_338_TrROS_Hall]”: the “folding stability dG unfold” value worked out at 1.38 ± 0.12 kcal/mol in series [1], 0.391 ± 0.12 kcal/mol in series [2] and 0.961 ± 0.36 kcal/mol in series [3].
On the same counts, the results for “KIPITIEEDPEDKMYELRVPDGMPIQIQRSKDGYRVSIWNPDNGKPREIPITKKDLKDLLSNPGFWIEIYKS [r1_18_TrROS]” are 1.56 ± 0.078 kcal/mol, 1.64 ± 0.062 kcal/mol and 1.77 ± 0.11 kcal/mol.
On the same counts, the results for “KIVILEPGEEAELPGVKVIPVDGLRIREVEVNGKKILVIEMSEEEIENGNEEELEKLRELAEELGADEVILS [r1_438_TrROS_Hall]” are 1.27 ± 0.062 kcal/mol, 1.13 ± 0.072 kcal/mol and 1.14 ± 0.26 kcal/mol.
In the case of “KKIHIMFNNPQHVRRIAKKLGPNVKPDDVKKNPNGYYYFEIDLPNGRPIDIHIPSENMPAEDIVDYALEMLS [r1_279_TrROS]”, the “folding stability dG unfold” value in series [1] is 0.86 ± 0.089 kcal/mol; in series [2], 0.88 ± 0.02 kcal/mol; in series [3], 0.894 ± 0.058 kcal/mol.
For “KKKILIFITGDNPELAERIRKELEELGYDVEVKVVTTPEEMEKAIEEAEKTDIVIVIHLPPALPLSPELAFS [r1_497_TrMRF]” the same measures were 0.709 ± 0.12 kcal/mol, 2.58 ± 0.13 kcal/mol and 1.9 ± 0.19 kcal/mol.
Regarding “KMEIKIEVEKVKDEETGEEYIEVKIVVKKENVEEALEKVKKILEEEFNYEIVDVKVEKKDDYVVITVKIRLS [r1_337_TrROS_Hall]”, the entries for the “folding stability dG unfold” value in series [1], in series [2] and in series [3] were 2.21 ± 0.41 kcal/mol, 3.15 ± 0.22 kcal/mol and 2.89 ± 0.53 kcal/mol, respectively.
For “KSKEEQKEQQEEQQKPPPVEIKVEVEVVKSPNGNPYFQFNVEYYDPGDGEPIGEITISVPPDDVDELADEFS [r1_415_TrROS]”, the results for the “folding stability dG unfold” value in series [1], in series [2] and in series [3] were 2.63 ± 0.25 kcal/mol, 1.97 ± 0.4 kcal/mol and 2.46 ± 0.71 kcal/mol, respectively.
As to “KTISSDELLELLGVSKSELKKLPLEAIVDEVKKALPPGVAVSAKAEPIPENPSYTIVVELKNGEPVTITLDS [r1_340_TrMRF]”, the entries for the “folding stability dG unfold” value in series [1], in series [2] and in series [3] were 1 ± 0.026 kcal/mol, 1.06 ± 0.041 kcal/mol and 0.964 ± 0.12 kcal/mol, respectively.
On the same counts, the results for “KTLVIHAKTPEEILAAIKEAIKEGKTVVIEMSPELIEALKEAGFEIEKIEEVEEIDGKKIYRVVIEVKPKES [r1_173_TrROS_Hall]” are 3.36 ± 0.058 kcal/mol, 1.66 ± 0.084 kcal/mol and 2.87 ± 0.2 kcal/mol.
On the same counts, the results for “KTVMIMFKNPEQILNQLREARDDGKTVSIMFPDEWINELKNLGFKIDKITDVQPMPGNDSYMVEIKIKPKDS [r1_173_TrROS]” are 2.31 ± 0.12 kcal/mol, 1.29 ± 0.12 kcal/mol and 1.95 ± 0.2 kcal/mol.
Regarding “MEELEKLPGIKVEPIREEDGRLYLRVTFTDEVAKALGKPPVTVLIEVEPGEELELSPELRELLRKLGIEVVS [r1_256_TrROS_Hall]”, the “folding stability dG unfold” value in series [1] turned out to be 4.34 ± 0.11 kcal/mol; in series [2], 2.6 ± 0.061 kcal/mol; in series [3] it was 3.86 ± 0.12 kcal/mol.
On the same counts, the results for “MEIIKKLKIPDYEIVSVKTKKIGNKVIVVVVLKKEKEYYVIVAEINPETKEIKIISIKKLKENETLEDFISS [r1_383_TrMRF]” are 3.95 ± 0.11 kcal/mol, 3.2 ± 0.26 kcal/mol and 3.76 ± 0.32 kcal/mol.
Take “MEIKKIELKVEEKDGKLVLTVKIEVFDKNGKLVKKVEIKLEVPKELKEGQSLEELPLSEELRKLVKELLEKS [r1_354_TrROS_Hall]”: the “folding stability dG unfold” value in series [1] turned out to be 3.79 ± 0.34 kcal/mol; in series [2], 3.11 ± 0.26 kcal/mol; in series [3] it was 3.54 ± 0.7 kcal/mol.
Regarding “MEKVLILAKIKLKGPDGEEAEIDFAVEISPEEATPELLKKVREEAEEIAEALKEKGYEVELEVEVVKLGEES [r1_221_TrMRF]”, the “folding stability dG unfold” value in series [1] amounted to 2.88 ± 0.24 kcal/mol; in series [2], 3.62 ± 0.48 kcal/mol; in series [3], 3.25 ± 0.65 kcal/mol.
For “MEPPPVVVLEIEIEVPAEDEELRNMTAEELAARLAEELEALPGLKVVSVEVVEVEERPDGTLRVRIRVTIES [r1_484_TrROS_Hall]” the same measures were 2.32 ± 0.14 kcal/mol, 3.69 ± 0.47 kcal/mol and 3.57 ± 0.79 kcal/mol.
As for “MKETVTVDITVVVEDENGKKHLVRVKVTVEKLPDGTYRVTIEVENLETGKTETIEIEVKGAEFKPGDVIEIS [r1_14_TrROS_Hall]”, the results for the “folding stability dG unfold” value in series [1], in series [2] and in series [3] were 2.56 ± 0.15 kcal/mol, 3.21 ± 0.15 kcal/mol and 2.87 ± 0.12 kcal/mol, respectively.
On to “MKIKEVKVFPLPGENTIVILVTGEFDSFYIPETGKPIPSSAKITLIEVIKVPEDSDEAEVESSLLILPDAES [r1_147_TrMRF]”, for which the “folding stability dG unfold” value in series [1] was found to be 1.46 ± 0.067 kcal/mol; in series [2], 1.08 ± 0.067 kcal/mol; in series [3] it was 1.4 ± 0.16 kcal/mol.
As for “MKPGETKTLTLTIVDEETGETYTVKVTVTYDEDTGVVTIKAEITYPDGRKFTVTARFNRETGELTEISIEPS [r1_144_TrROS_Hall]”, the “folding stability dG unfold” value in series [1] is 4.44 ± 0.075 kcal/mol; in series [2] it was 3.96 ± 0.087 kcal/mol; in series [3] it was 4.32 ± 0.098 kcal/mol.
As for “MMTKEEIEKLAEELAKELEKKGYKIVKVEIEEVKPGEVKIKVDGKEITITLKDGRKLRIKVEVKKLPKEELS [r1_31_TrROS_Hall]”, the “folding stability dG unfold” value was 3.63 ± 0.11 kcal/mol in series [1], 1.97 ± 0.053 kcal/mol in series [2] and 3.04 ± 0.11 kcal/mol in series [3].
For “MNIPLKEILDKAKAEGKPVVFPDGTKTLSFEPGGKATIEKPVEVPGKPGVPLETKTYTIDINEDGSVTVNDS [r1_284_JUSTAS]” the same measures were -0.279 ± 0.15 kcal/mol, -0.875 ± 0.17 kcal/mol and -0.373 ± 0.095 kcal/mol.
On the same counts, the results for “MNLSDPVSVAKLKKALEEIKKAIEELKKKGKKIEILAIELNDDSIKITPVTKSEEYIKKKKEEGIEIILLLS [r1_134_JUSTAS]” are 0.677 ± 0.37 kcal/mol, 1.52 ± 0.041 kcal/mol and 1.38 ± 0.2 kcal/mol.
Consider “MNVTINITVLSPDSSGYTMKATVTFPETPVTTSKEYKTSDPVSAVEEIIKELVDEENLSNATVTTYPSSRLS [r1_399_JUSTAS]”, for which the “folding stability dG unfold” value in series [1] was 0.377 ± 0.35 kcal/mol; in series [2], -0.562 ± 0.22 kcal/mol; in series [3], 0.0431 ± 0.19 kcal/mol.
For “MPDISRAEIKALAEKLGLPVPDGTITIKFTYGDKTITVPVDAKKDITLGDIVEAIKKKNPNIKKIEIVAEPS [r1_135_TrMRF]” the same measures were 0.808 ± 0.08 kcal/mol, 0.956 ± 0.044 kcal/mol and 0.907 ± 0.077 kcal/mol.
